The values that follow come from paper PMC11910330, “Familial Alzheimer’s disease mutations in amyloid precursor protein impair calcineurin signaling to NMDA receptors” (The Journal of Biological Chemistry, 2024).

Test [1] deals with APLP1 peptide (APLP1 core sequence in the PVIVIT peptide). Put plainly: pull-down; biotinylated peptides (10 ug) precoupled to streptavidin-coated beads, incubated with 200 ng GST-CaN in 200 ul for 30 min at 4 C; PBS with 0.1% Tween-20 and 0.1% BSA, or 150 mM NaCl, 10 mM Hepes, 5 mM EDTA, pH 7.4 with 0.5% CHAPSO and 0.1% BSA; immunoblot with anti-CaN, normalised to a GST-CaN standard. In general terms: Immunoblotting shows a protein as a band on a membrane.

The target of test [2] is APLP2 peptide (APLP2 core sequence in the PVIVIT peptide). The description is as above.

For the substance “recombinant GST-tagged CaN A subunit (from UniProt Q08209 1-521) (enzyme)”, the figures for the percent lower CaN binding than the PVIVIT peptide in test [1] and in test [2] were 80% and 30%, respectively.
